Results: publication PMC5225424

Target: GmMYB176-YFP (soybean (Glycine max))
Assay: FRET or BRET; FRET by acceptor bleaching, CFP as donor and YFP as acceptor, co-expressed in N. benthamiana leaf epidermal cells; average of multiple samples (n > 15)

- FRET efficiency: 23.8%
Substance: GmCYP1-CFP (from UniProt Q8W171 1-172) (natural protein)
